Assay [1] addresses T1, CD33 naturally expressed on HL60 cells (human, UniProt P20138 18-364). As to the kind of experiment: FACS.
In assay [2] the target is CD38 naturally expressed on Daudi cells (human, UniProt P28907 1-300). As to the kind of experiment: FACS; FIG. 24. Background: In flow cytometry, cells or beads pass a laser one at a time.
Assay [3] has as its target T1, CD33 naturally expressed on HL60 cells. Description: FACS. This is another data set of the same source.

Where two headings read alike, the source gives them in different places.

T1 sequence (P20138 18-364): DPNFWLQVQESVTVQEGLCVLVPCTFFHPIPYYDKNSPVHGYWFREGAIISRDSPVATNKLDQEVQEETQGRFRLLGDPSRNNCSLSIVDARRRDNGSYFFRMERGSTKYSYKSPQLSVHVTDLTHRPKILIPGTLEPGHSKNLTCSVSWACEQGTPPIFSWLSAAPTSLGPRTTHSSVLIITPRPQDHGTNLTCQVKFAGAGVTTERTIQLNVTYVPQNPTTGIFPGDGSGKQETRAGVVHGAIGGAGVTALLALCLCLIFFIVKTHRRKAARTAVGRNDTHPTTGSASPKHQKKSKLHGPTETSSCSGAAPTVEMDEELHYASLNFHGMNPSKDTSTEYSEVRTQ

B1: QP43354336 (antibody, V domains shown)
VH: QVQLVQSGAEVKKPGESLKVSCKASGYTFTSYYMHWVRQAPGQGLEWMGIINPSGGSTSYAQKFQGRVTMTRDTSTSTVYMELSSLRSEDTAVYYCARGSAYYYDFADYWGQGTLVTVSS
VL: MDMRVPAQLLGLLLLWFPGSRCSYVLTQPSSVSVAPGQTATISCGGHNIGSKNVHWYQQRPGQSPVLVIYQDNKRPSGIPERFSGSNSGNTATLTISGTQAMDEADYYCQVWDNYSVLFGGGTKLTVLR
For B1, the 50% effective concentration (EC50) (as a rule, the concentration at which the effect is half-maximal) in assay [1] is 21.4 nM; in assay [2], around 0.289 nM.

B2: QP42824285 (antibody)
chain 1: MEFGLSWLFLVAILKGVQCQVQLVQSGAEVKKPGESVKVSCKASGYTFTNYGMNWVKQAPGQGLEWMGWINTYTGEPTYADKFQGRVTMTTDTSTSTAYMEIRNLGGDDTAVYYCARWSWSDGYYVYFDYWGQGTSVTVSSGGGSGGGGSYVLTQPSSVSVAPGQTATISCGGHNIGSKNVHWYQQRPGQSPVLVIYQDNKRPSGIPERFSGSNSGNTATLTISGTQAMDEADYYCQVWDNYSVLFGGGTKLTVLGGGGSGGGGSGGGGSRTVAAPSVFIFPPSDEQLKSGTASVVCLLNNFYPREAKVQWKVDNALQSGNSQESVTEQDSKDSTYSLSSTLTLSKADYEKHKVYACEVTHQGLSSPVTKSFNRGEC
chain 2: MEFGLSWLFLVAILKGVQCQVQLVQSGAEVKKPGESLKVSCKASGYTFTSYYMHWVRQAPGQGLEWMGIINPSGGSTSYAQKFQGRVTMTRDTSTSTVYMELSSLRSEDTAVYYCARGSAYYYDFADYWGQGTLVTVSSGGGSGGGGDIVMTQSPDSLTVSLGERTTINCKSSQSVLDSSTNKNSLAWYQQKPGQPPKLLLSWASTRESGIPDRFSGSGSGTDFTLTIDSPQPEDSATYYCQQSAHFPITFGQGTRLEIKGGGGSGGGGSGGGGSASTKGPSVFPLAPSSKSTSGGTAALGCLVKDYFPEPVTVSWNSGALTSGVHTFPAVLQSSGLYSLSSVVTVPSSSLGTQTYICNVNHKPSNTKVDKKVEPKSCDKTHTCPPCPAPEAAGGPSVFLFPPKPKDTLMISRTPEVTCVVVDVSHEDPEVKFNWYVDGVEVHNAKTKPREEQYNSTYRVVSVLTVLHQDWLNGKEYKCKVSNKALPAPIEKTISKAKGQPREPQVYTLPPSREEMTKNQVSLSCAVKGFYPSDIAVEWESNGQPENNYKTTPPVLDSDGSFFLVSKLTVDKSRWQQGNVFSCSVMHEALHNRYTQKSLSLSPGKGGSHHHHHH
chain 3: not shown
chain 4: not shown
The molecule B2 displayed an EC50 in assay [1] of 2.31 nM.

B3: CD33/CD16A/IL-15 trifunctional fusion protein QP43394340 (FC with L234A/L235A mutation for eliminating function) (bispecific antibody)
chain 1: not shown
chain 2: not shown
light: DIVMTQSPDSLTVSLGERTTINCKSSQSVLDSSTNKNSLAWYQQKPGQPPKLLLSWASTRESGIPDRFSGSGSGTDFTLTIDSPQPEDSATYYCQQSAHFPITFGQGTRLEIKRTVAAPSVFIFPPSDEQLKSGTASVVCLLNNFYPREAKVQWKVDNALQSGNSQESVTEQDSKDSTYSLSSTLTLSKADYEKHKVYACEVTHQGLSSPVTKSFNRGEC
heavy: QVQLVQSGAEVKKPGESVKVSCKASGYTFTNYGMNWVKQAPGQGLEWMGWINTYTGEPTYADKFQGRVTMTTDTSTSTAYMEIRNLGGDDTAVYYCARWSWSDGYYVYFDYWGQGTSVTVSSASTKGPSVFPLAPSSKSTSGGTAALGCLVKDYFPEPVTVSWNSGALTSGVHTFPAVLQSSGLYSLSSVVTVPSSSLGTQTYICNVNHKPSNTKVDKKVEPKSCDKTHTCPPCPAPEAAGGPSVFLFPPKPKDTLMISRTPEVTCVVVDVSHEDPEVKFNWYVDGVEVHNAKTKPREEQYNSTYRVVSVLTVLHQDWLNGKEYKCKVSNKALPAPIEKTISKAKGQPREPQVYTLPPSREEMTKNQVSLSCAVKGFYPSDIAVEWESNGQPENNYKTTPPVLDSDGSFFLVSKLTVDKSRWQQGNVFSCSVMHEALHNRYTQKSLSLSPGK
B3 yielded an EC50 in assay [3] of 13.4 nM.

B4: CD33/CD16A bispecific antibody QP4115777778 (FC wild-type) (bispecific antibody)
chain: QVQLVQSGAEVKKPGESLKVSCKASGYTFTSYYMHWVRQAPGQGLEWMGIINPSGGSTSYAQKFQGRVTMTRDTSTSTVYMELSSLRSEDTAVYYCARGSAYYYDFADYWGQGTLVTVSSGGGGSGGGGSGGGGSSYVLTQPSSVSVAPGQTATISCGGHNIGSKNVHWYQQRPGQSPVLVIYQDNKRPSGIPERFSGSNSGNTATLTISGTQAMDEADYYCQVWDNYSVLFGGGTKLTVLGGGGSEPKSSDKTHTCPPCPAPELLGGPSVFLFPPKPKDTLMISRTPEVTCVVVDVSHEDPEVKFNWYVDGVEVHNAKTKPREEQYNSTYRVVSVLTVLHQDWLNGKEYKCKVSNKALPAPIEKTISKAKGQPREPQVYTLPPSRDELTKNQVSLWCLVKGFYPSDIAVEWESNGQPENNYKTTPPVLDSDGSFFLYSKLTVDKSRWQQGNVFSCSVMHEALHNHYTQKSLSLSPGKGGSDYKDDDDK
heavy: QVQLVQSGAEVKKPGESVKVSCKASGYTFTNYGMNWVKQAPGQGLEWMGWINTYTGEPTYADKFQGRVTMTTDTSTSTAYMEIRNLGGDDTAVYYCARWSWSDGYYVYFDYWGQGTSVTVSSASTKGPSVFPLAPSSKSTSGGTAALGCLVKDYFPEPVTVSWNSGALTSGVHTFPAVLQSSGLYSLSSVVTVPSSSLGTQTYICNVNHKPSNTKVDKKVEPKSCDKTHTCPPCPAPELLGGPSVFLFPPKPKDTLMISRTPEVTCVVVDVSHEDPEVKFNWYVDGVEVHNAKTKPREEQYNSTYRVVSVLTVLHQDWLNGKEYKCKVSNKALPAPIEKTISKAKGQPREPQVYTLPPSREEMTKNQVSLSCAVKGFYPSDIAVEWESNGQPENNYKTTPPVLDSDGSFFLVSKLTVDKSRWQQGNVFSCSVMHEALHNRYTQKSLSLSPGKGGSHHHHHH
light: DIVMTQSPDSLTVSLGERTTINCKSSQSVLDSSTNKNSLAWYQQKPGQPPKLLLSWASTRESGIPDRFSGSGSGTDFTLTIDSPQPEDSATYYCQQSAHFPITFGQGTRLEIKRTVAAPSVFIFPPSDEQLKSGTASVVCLLNNFYPREAKVQWKVDNALQSGNSQESVTEQDSKDSTYSLSSTLTLSKADYEKHKVYACEVTHQGLSSPVTKSFNRGEC
B4: the EC50 in assay [3] was 9.63 nM.

B5: CD33/CD16A/IL-15 trifunctional fusion protein QP743745 (FC wild-type) (bispecific antibody)
chain 1: not shown
chain 2: not shown
light: DIVMTQSPDSLTVSLGERTTINCKSSQSVLDSSTNKNSLAWYQQKPGQPPKLLLSWASTRESGIPDRFSGSGSGTDFTLTIDSPQPEDSATYYCQQSAHFPITFGQGTRLEIKRTVAAPSVFIFPPSDEQLKSGTASVVCLLNNFYPREAKVQWKVDNALQSGNSQESVTEQDSKDSTYSLSSTLTLSKADYEKHKVYACEVTHQGLSSPVTKSFNRGEC
heavy: QVQLVQSGAEVKKPGESVKVSCKASGYTFTNYGMNWVKQAPGQGLEWMGWINTYTGEPTYADKFQGRVTMTTDTSTSTAYMEIRNLGGDDTAVYYCARWSWSDGYYVYFDYWGQGTSVTVSSASTKGPSVFPLAPSSKSTSGGTAALGCLVKDYFPEPVTVSWNSGALTSGVHTFPAVLQSSGLYSLSSVVTVPSSSLGTQTYICNVNHKPSNTKVDKKVEPKSCDKTHTCPPCPAPELLGGPSVFLFPPKPKDTLMISRTPEVTCVVVDVSHEDPEVKFNWYVDGVEVHNAKTKPREEQYNSTYRVVSVLTVLHQDWLNGKEYKCKVSNKALPAPIEKTISKAKGQPREPQVYTLPPSREEMTKNQVSLSCAVKGFYPSDIAVEWESNGQPENNYKTTPPVLDSDGSFFLVSKLTVDKSRWQQGNVFSCSVMHEALHNRYTQKSLSLSPGK
The molecule B5 showed an EC50 in assay [3] of 8.08 nM.

B6: QP34483449 (antibody, V domains shown)
VH: EVQLVESGGGLVQPGGSLRLSCAASGFDFSRYWMSWVRQAPGKGLEWIGEINPDSSTINYAPSLKDKFIISRDNAKNSLYLQMNSLRAEDTAVYYCARPDGNYWYFDVWGQGTLVTVSS
VL: MDMRVPAQLLGLLLLWFPGSRCDIQMTQSPSSLSASVGDRVTITCKASQDVGIAVAWYQQKPGKVPKLLIYWASTRHTGVPDRFSGSGSGTDFTLTISSLQPEDVATYYCQQYSSYPYTFGQGTKVEIKR
B6 yielded an EC50 in assay [2] of 18.4 nM.

B7: QP42714274 (antibody)
chain 1: not shown
chain 2: EVQLLESGGGLVQPGGSLRLSCAVSGFTFNSFAMSWVRQAPGKGLEWVSAISGSGGGTYYADSVKGRFTISRDNSKNTLYLQMNSLRAEDTAVYFCAKDKILWFGEPVFDYWGQGTLVTVSSASTKGPSVFPLAPSSKSTSGGTAALGCLVKDYFPEPVTVSWNSGALTSGVHTFPAVLQSSGLYSLSSVVTVPSSSLGTQTYICNVNHKPSNTKVDKKVEPKSCDKTHTCPPCPAPEAAGGPSVFLFPPKPKDTLMISRTPEVTCVVVDVSHEDPEVKFNWYVDGVEVHNAKTKPREEQYNSTYRVVSVLTVLHQDWLNGKEYKCKVSNKALPAPIEKTISKAKGQPREPQVYTLPPSREEMTKNQVSLSCAVKGFYPSDIAVEWESNGQPENNYKTTPPVLDSDGSFFLVSKLTVDKSRWQQGNVFSCSVMHEALHNRYTQKSLSLSPGKGGSHHHHHH
chain 3: not shown
chain 4: not shown
B7 had an EC50 in assay [2] of 4.76 nM.

B8: CD33/CD16A/IL-15 trifunctional fusion protein QP42914285 (FC with L234A/L235A mutation for eliminating function) (bispecific antibody)
light: SYVLTQPSSVSVAPGQTATISCGGHNIGSKNVHWYQQRPGQSPVLVIYQDNKRPSGIPERFSGSNSGNTATLTISGTQAMDEADYYCQVWDNYSVLFGGGTKLTVLRTVAAPSVFIFPPSDEQLKSGTASVVCLLNNFYPREAKVQWKVDNALQSGNSQESVTEQDSKDSTYSLSSTLTLSKADYEKHKVYACEVTHQGLSSPVTKSFNRGEC
heavy: QVQLVQSGAEVKKPGESLKVSCKASGYTFTSYYMHWVRQAPGQGLEWMGIINPSGGSTSYAQKFQGRVTMTRDTSTSTVYMELSSLRSEDTAVYYCARGSAYYYDFADYWGQGTLVTVSSASTKGPSVFPLAPSSKSTSGGTAALGCLVKDYFPEPVTVSWNSGALTSGVHTFPAVLQSSGLYSLSSVVTVPSSSLGTQTYICNVNHKPSNTKVDKKVEPKSCDKTHTCPPCPAPEAAGGPSVFLFPPKPKDTLMISRTPEVTCVVVDVSHEDPEVKFNWYVDGVEVHNAKTKPREEQYNSTYRVVSVLTVLHQDWLNGKEYKCKVSNKALPAPIEKTISKAKGQPREPQVYTLPPSREEMTKNQVSLSCAVKGFYPSDIAVEWESNGQPENNYKTTPPVLDSDGSFFLVSKLTVDKSRWQQGNVFSCSVMHEALHNRYTQKSLSLSPGKGGSHHHHHH
chain 1: not shown
chain 2: not shown
On to B8, for which the EC50 came to 3.08 nM in assay [3] and 4.51 nM in assay [1].

B9: CD33 antibody IgG1 wt subtype QP41154116 (antibody, V domains shown)
VH: QVQLVQSGAEVKKPGESVKVSCKASGYTFTNYGMNWVKQAPGQGLEWMGWINTYTGEPTYADKFQGRVTMTTDTSTSTAYMEIRNLGGDDTAVYYCARWSWSDGYYVYFDYWGQGTSVTVSS
VL: DIVMTQSPDSLTVSLGERTTINCKSSQSVLDSSTNKNSLAWYQQKPGQPPKLLLSWASTRESGIPDRFSGSGSGTDFTLTIDSPQPEDSATYYCQQSAHFPITFGQGTRLEIKR
For the molecule B9, the EC50 came to 2.89 nM in assay [3] and 3.31 nM in assay [1].

The values above are taken from patent publication US20240383985A1 (published 2024).
